Laboratory results taken from the Immune Epitope Database (IEDB).

Legend:
[1] = molecular target: HLA-A*31:01; assay: IEDB peptide-MHC binding, purified MHC/direct/fluorescence; filed as Kd, often an IC50 or EC50 that approximates it; ≥ and ≤ were set here for values at or beyond the usual limits of such assays; details: source organism: Entamoeba histolytica HM-1:IMSS
[2] = molecular target: HLA-A*03:01; assay: as above; details: source organism: Entamoeba histolytica HM-1:IMSS
[3] = molecular target: HLA-A*23:01; assay: IEDB peptide-MHC binding, purified MHC/competitive/radioactivity; filed as Kd, often an IC50 or EC50 that approximates it; ≥ and ≤ were set here for values at or beyond the usual limits of such assays
[4] = molecular target: HLA-A*24:02; assay: as above
[5] = molecular target: HLA-A*29:02; assay: as above
[6] = molecular target: HLA-A*01:01; assay: as above; details: source organism: SARS coronavirus Tor2
[7] = molecular target: HLA-A*30:02; assay: as above; details: source organism: SARS coronavirus Tor2
[8] = molecular target: HLA-A*26:01; assay: as above; details: source organism: SARS coronavirus Tor2
[9] = molecular target: HLA-A*69:01; assay: IEDB peptide-MHC binding, purified MHC/direct/fluorescence; filed as Kd, often an IC50 or EC50 that approximates it; ≥ and ≤ were set here for values at or beyond the usual limits of such assays
[10] = molecular target: HLA-A*02:01; assay: as above
[11] = molecular target: HLA-A*02:01; assay: IEDB peptide-MHC binding, purified MHC/competitive/fluorescence; filed as Kd, often an IC50 or EC50 that approximates it; ≥ and ≤ were set here for values at or beyond the usual limits of such assays
[12] = molecular target: HLA-B*08:01; assay: IEDB peptide-MHC binding, purified MHC/competitive/radioactivity; filed as Kd, often an IC50 or EC50 that approximates it; ≥ and ≤ were set here for values at or beyond the usual limits of such assays
[13] = source organism: Dengue virus 3 Martinique/1243/1999
[14] = source organism: SARS coronavirus Tor2
[15] = source organism: Pseudomonas aeruginosa
[16] = source organism: Vaccinia virus WR
[17] = source organism: Lassa virus Josiah
[18] = source organism: Giardia lamblia ATCC 50803

| Sequence | Kd [3, 14] [nM] | Kd [4, 14] [nM] | Kd [5, 14] [nM] | Kd [6] [nM] | Kd [7] [nM] | Kd [8] [nM] | also measured |
| --- | --- | --- | --- | --- | --- | --- | --- |
| ANKWYFAPR | – | – | – | – | – | – | Kd [1]: 1.4 nM; Kd [2]: ≥ 20000 nM |
| AWMVHRQWF | – | – | – | – | – | – | Kd [3, 13]: 340 nM; Kd [4, 13]: 42.9 nM |
| DEEGNLLDSY | ≥ 58100 | ≥ 70300 | 7260 | ≥ 92600 | 8980 | ≥ 71600 | – |
| DMYDQQLSV | – | – | – | – | – | – | Kd [9, 15]: 32 nM; Kd [10, 15]: 262 nM |
| DSKEGFFTY | ≥ 77800 | ≥ 77600 | 663 | 200 | 237 | 993 | – |
| DYAEISFML | ≥ 90700 | ≥ 105000 | 100 | ≥ 22500 | 440 | ≥ 68900 | – |
| EHSWNADLY | ≥ 77800 | ≥ 77600 | 295 | ≥ 69400 | 45.1 | 4410 | – |
| EIQLKIDKL | – | – | – | – | – | – | Kd ([11]; source organism: Variola virus): 3590 nM |
| ELINKFVEL | – | – | – | – | – | – | Kd [12, 16]: 1040 nM |
| ELKEKSVKF | – | – | – | – | – | – | Kd [12, 16]: 3.19 nM |
| EQMQRKHGGM | – | – | – | – | – | – | Kd ([12]; source organism: Dengue virus 1 Brazil/97-11/1997): 86 nM |
| ETNDLVTNV | – | – | – | – | – | – | Kd ([11]; source organism: Variola virus): 3240 nM |
| EWSVATFYLF | 0.0328 | 27.2 | 17.4 | 1160 | 1730 | – | – |
| FFQEVPHVI | – | – | – | – | – | – | Kd [3, 17]: 239 nM; Kd [4, 17]: 713 nM; Kd [5, 17]: 508 nM |
| FLIGVYQQY | – | – | – | – | – | – | Kd [9, 18]: ≥ 20000 nM; Kd [10, 18]: ≥ 20000 nM |
| FLMGFNRDV | – | – | – | – | – | – | Kd ([9]; source organism: Mycobacterium tuberculosis): 1760 nM |
| FTFKRTSGSSV | – | – | – | – | – | – | Kd ([11]; source organism: Influenza A virus H3N2): 930 nM |
| FYFTNDVSF | 1490 | 2800 | 413 | 17100 | ≥ 96800 | ≥ 22300 | – |
| GFELTSMKY | ≥ 77800 | ≥ 77600 | 132 | 1750 | 1840 | ≥ 81500 | – |
